T1: SNF (Drosophila melanogaster, UniProt P43332)
T1 chain: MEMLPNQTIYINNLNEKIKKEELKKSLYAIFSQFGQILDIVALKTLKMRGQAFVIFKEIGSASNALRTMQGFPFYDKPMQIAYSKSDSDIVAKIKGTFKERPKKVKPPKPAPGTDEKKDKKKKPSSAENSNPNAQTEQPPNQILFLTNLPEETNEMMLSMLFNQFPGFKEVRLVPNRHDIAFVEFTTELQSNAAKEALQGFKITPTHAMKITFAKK

T2: SNF (sans fille) (Drosophila, UniProt P43332 1-216)
T2 sequence: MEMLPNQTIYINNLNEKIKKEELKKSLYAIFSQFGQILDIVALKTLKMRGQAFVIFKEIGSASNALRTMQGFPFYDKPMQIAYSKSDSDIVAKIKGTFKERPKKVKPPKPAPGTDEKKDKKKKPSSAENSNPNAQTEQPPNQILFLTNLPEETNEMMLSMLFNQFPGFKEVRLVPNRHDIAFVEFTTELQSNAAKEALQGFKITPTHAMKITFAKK


Legend:
SNF = molecular target: T1, SNF
SNF (sans fille) = molecular target: T2, SNF (sans fille); experiment: 2-aminopurine fluorescence and CD

| Kd (SNF) | Binder | binding result (SNF (sans fille)) |
| --- | --- | --- |
| 4 nM | U2A' (protein, SLIV RNA bound) MVKLTPELINQSMQYINPCRERELDLRGYKIPQIENLGATLDQFDTIDLSDNDLRKLDNLPHLPRLKCLLLNNNRILRISEGLEEAVPNLGSIILTGNNLQELSDLEPLVGFTKLETICLLINPVSTKPNYREYMAYKFPQLRLLDFRKIKQKDRQAAQEFFRTKQGKDVLKEISRKSKMSAAAAIAAEAGNGKGRGSEGGRLANPQDMQRIREAIKRASSLAEVERLSQILQSGQLPDKFQHEMEAVAQNGAGHNGSGAVAMEY |  |
|  | GGCCGUAUUGCAGUACCGCGGCC (structured_RNA, 2-aminopurine replaces A at position 15 (3'-loop adenine)) [2AP-SLIV] | binds |
